According to PMC3816256, “Sgol2 provides a regulatory platform that coordinates essential cell cycle processes during meiosis I in oocytes” (eLife, 2013):

Key:
[1] = target: the molecule itself; test: pull-down; purified Flag-tagged MBP-Sgol2cc (31-117) pulled down by purified His-tagged MBP-Sgol2cc (31-117) with the same substitution; western blots
[2] = target: the molecule itself; test: pull-down; MBP-Sgol2cc-His and MBP-Sgol2cc-Flag co-expressed in E. coli; 10 mg of extract on Talon beads 2 hr at 4°C (50 mM sodium phosphate pH 7, 250 mM NaCl, 10% glycerol, 0.02% Triton X-100), washes with 23 mM imidazole; blots with anti-Flag and anti-His; the paper calls it co-immunoprecipitation

Protein | binding result [1] | binding result [2]
MBP-Sgol2cc-Flag, wild type (mouse Sgol2 coiled coil region 31-117) (domain or fragment, UniProt Q7TSY8 31-117, looked up, In the dimerization assays the second copy (bait) carried a His tag in place of Flag (MBP-Sgol2cc-His, pET28b backbone; Flag copy in pMAL-c2x); also called MBP-mSgol2cc-Flag; MBP-Sgol2cc-His; source: also His- and Flag-tagged copies co-expressed, in extract; not shown: MBP, N-terminal, kept; Flag, C-terminal, kept) SLASKIKAKILNNSSIFKISLKHNNRALARALSKEKENSRRITTEKMQLQKEVEKLNFENTFLRLKLNTLNKKLVEIESHVSNDLLT | binds | 
MBP-Sgol2cc-Flag N54A (domain or fragment, mouse, UniProt Q7TSY8 31-117, looked up, In the dimerization assay the second copy (bait) carried a His tag in place of Flag and the same substitution; not shown: MBP, N-terminal, kept; Flag, C-terminal, kept) SLASKIKAKILNNSSIFKISLKHANRALARALSKEKENSRRITTEKMQLQKEVEKLNFENTFLRLKLNTLNKKLVEIESHVSNDLLT | binds | 
MBP-Sgol2cc-Flag E82A (domain or fragment, mouse, UniProt Q7TSY8 31-117, looked up, In the dimerization assay the second copy (bait) carried a His tag in place of Flag and the same substitution; not shown: MBP, N-terminal, kept; Flag, C-terminal, kept) SLASKIKAKILNNSSIFKISLKHNNRALARALSKEKENSRRITTEKMQLQKAVEKLNFENTFLRLKLNTLNKKLVEIESHVSNDLLT | binds | 
MBP-Sgol2cc-Flag N55I (domain or fragment, mouse, UniProt Q7TSY8 31-117, looked up, In the dimerization assay the second copy (bait) carried a His tag in place of Flag and the same substitution; not shown: MBP, N-terminal, kept; Flag, C-terminal, kept) SLASKIKAKILNNSSIFKISLKHNIRALARALSKEKENSRRITTEKMQLQKEVEKLNFENTFLRLKLNTLNKKLVEIESHVSNDLLT | binds | 
MBP-Sgol2cc-Flag E82K (domain or fragment, mouse, UniProt Q7TSY8 31-117, looked up, In the dimerization assay the second copy (bait) carried a His tag in place of Flag and the same substitution; not shown: MBP, N-terminal, kept; Flag, C-terminal, kept) SLASKIKAKILNNSSIFKISLKHNNRALARALSKEKENSRRITTEKMQLQKKVEKLNFENTFLRLKLNTLNKKLVEIESHVSNDLLT | binds | 
MBP-Sgol2cc-Flag R56A (domain or fragment, mouse, UniProt Q7TSY8 31-117, looked up, In the dimerization assay the second copy (bait) carried a His tag in place of Flag and the same substitution; not shown: MBP, N-terminal, kept; Flag, C-terminal, kept) SLASKIKAKILNNSSIFKISLKHNNAALARALSKEKENSRRITTEKMQLQKEVEKLNFENTFLRLKLNTLNKKLVEIESHVSNDLLT | binds | 
MBP-Sgol2cc-Flag L51A (domain or fragment, mouse, UniProt Q7TSY8 31-117, looked up, In the dimerization assay the second copy (bait) carried a His tag in place of Flag and the same substitution; not shown: MBP, N-terminal, kept; Flag, C-terminal, kept) SLASKIKAKILNNSSIFKISAKHNNRALARALSKEKENSRRITTEKMQLQKEVEKLNFENTFLRLKLNTLNKKLVEIESHVSNDLLT | binds | 
MBP-Sgol2cc-Flag L51A/N54A/R56A (3A) (domain or fragment, mouse, UniProt Q7TSY8 31-117, looked up, In the dimerization assays the second copy (bait) carried a His tag in place of Flag and the same substitutions; also called 3A triple mutation; 3A mutant; source: also His- and Flag-tagged copies co-expressed, in extract; not shown: MBP, N-terminal, kept; Flag, C-terminal, kept) SLASKIKAKILNNSSIFKISAKHANAALARALSKEKENSRRITTEKMQLQKEVEKLNFENTFLRLKLNTLNKKLVEIESHVSNDLLT |  | binds
